In PMC6856157 one finds stoichiometry N data, which are given here for one substance.

The target of the assay is V1N, hybrid peptide of the collagen domain (POG)8 and the cell penetrating peptide domain (RRG)2, without the FITC reporter. Briefly: circular dichroism; V1N/siRNA complex in Milli-Q water, 90 uM V1N and 5 uM siRNA, equilibrated 30 min at 25 °C or 37 °C; positive peak at 224 nm. For orientation: Circular dichroism is widely used to follow secondary structure.

On to “V1N, hybrid peptide of the collagen domain (POG)8 and the cell penetrating peptide domain (RRG)2, without the FITC reporter”, for which the stoichiometry N (commonly a count of units in the complex or per binding partner) worked out at 3.
